Measurements from patent US20040014187A1, “Bacterial carboxypeptidase cpg2 variants and their use in gene directed enzyme prodrug therapy” (priority 2000, published 2004).
“Also recorded” adds a separate entry of the source. Where two headings read alike, the source gives them in different places.

Experiments:
[1] = biological target: the molecule itself; assay: non-reducing SDS-PAGE of COS cell extracts (homodimer)
Source text: We first determined why the asparagine to glutamine mutations that blocked glycosylation reduced CPG2s enzyme activity. […] We next tested each position independently.

[2] = CPG2 enzyme activity in detergent soluble extracts of stably expressing clones, MTX as substrate; format: biochemical; details: for CPG2 activity (U/mg): U/mg detergent soluble protein, clone as in label
Source text: All mammalian cell lines were maintained in Dulbecco's Modified Eagle's Medium supplemented with 10% foetal calf serum (DMEM/FCS). For this study, the human colorectal carcinoma cell line WiDr (Noguchi et al (1979) In Vitro. 15, 401-408, and the human ovarian carcinoma cell lines SK-OV-3 (Hill et al. (1987) 39, 219-225) and A2780 (Louie et al. (1985) Cancer Res. 45, 2110-2115) were separately transfected with the plasmid pMCEFstcpg2(Q)3 (Marais et al (1997) Nature Biotech. 15, 1373-1377) and G418-resistant colonies were selected by limiting dilution. Detergent soluble extracts were incubated with methotrexate, a good carboxypeptidase G2 substrate. Rate of change of absorbance at 320 nm was measured to identify those colonies able to degrade MTX and therefore likely to express stCPG2(Q)3. Expression of stCPG2(Q)3 was confirmed by immunoblotting these detergent soluble extracts using a rabbit polyclonal serum specific for CPG2 (Marais et al (1996) Cancer Res. 56, 4735-4742; Marais et al (1997) Nature Biotech. 15, 1373-1377). Cell lines constitutively expressing β-galactosidase or CPG2* have been described (Marais et al (1996) Cancer Res. 56, 4735-4742; Marais et al (1997) Nature Biotech. 15, 1373-1377).
In order to conduct these studies, we engineered WiDr (human colorectal adenocarcinoma), SK-OV-3 and A2780 (both human ovarian tumour lines) cells for stable expression of stCPG2(Q)3. The presence of stCPG2(Q)3 was verified by immunoprotein blotting (data not shown) and the levels of enzyme activity in these clones were determined using MTX as substrate (Table 2). For each line two or three clones were examined. The SK-OV-3 clones expressed the lowest levels of CPG2 activity (0.016 and 0.023 U/mg protein) followed by the A2780 clones (0.06 and 0.067 U/mg), with WiDr clones expressing the highest level of CPG2 activity (0.177 and 0.226 U/mg) (Table 2).

[3] = Enzyme kinetic studies of CPG2-derived enzymes in detergent soluble cell extracts, MTX as substrate; format: biochemical; details: for Catalytic activity (%): specific activity of COS/CPG2* (50 ng CPG2*) assigned as 100%; for Km: substrate MTX, detergent soluble cell extract, read-out: Km (μM MTX); for catalytic activity compared to CPG2*(Q)3: increase relative to CPG2*(Q)3; for increase in Km (decrease in apparent affinity for MTX) compared to CPG2*(Q)3: relative to CPG2*(Q)3
Source text: Detergent soluble cell extracts, and enzyme kinetic analyses have been described previously (Marais et al (1996) Cancer Res. 56, 4735-4742; Marais et al (1997) Nature Biotech. 15, 1373-1377).

[4] = previous study, cited from earlier work
[5] = CPG2 dimer stability by non-reducing SDS-polyacrylamide gel electrophoresis of COS cell extracts; details: sample not heated
Source text: To test this, CPG2* was transiently expressed in COS cells and the stability of the dimers determined by non-reducing SDS-polyacrylamide gels.

B1: CPG2* (cytosolic carboxypeptidase G2 from Pseudomonas strain RS16) (enzyme)
chain: ALAQKRDNVLFQAATDEQPAVIKTLEKLVNIETGTGDAEGIAAAGNFLEAELKNLGFTVTRSKSAGLVVGDNIVGKIKGRGGKNLLLMSHMDTVYLKGILAKAPFRVEGDKAYGPGIADDKGGNAVILHTLKLLKEYGVRDYGTITVLFNTDEEKGSFGSRDLIQEEAKLADYVLSFEPTSAGDEKLSLGTSGIAYVQVNITGKASHAGAAPELGVNALVEASDLVLRTMNIDDKAKNLRFNWTIAKAGNVSNIIPASATLNADVRYARNEDFDAAMKTLEERAQQKKLPEADVKVIVTRGRPAFNAGEGGKKLVDKAVAYYKEAGGTLGVEERTGGGTDAAYAALSGKPVIESLGLPGFGYHSDKAEYVDISAIPRRLYMAARLIMDLGAGK
notes: Homodimer; also called COS/CPG2*
For B1, the binding result [1] was “binds”, the “enzyme activity of CPG2* clone relative to stCPG2(Q)3 clones” value ([2]; A2780) was ~15 times and the “CPG2 activity (U/mg)” value ([2]; listed as S2.34 CPG2*) was 0.023 U/mg. For the same molecule, the “CPG2 activity (U/mg)” value ([2]; listed as S2.4 CPG2*) was 0.014 U/mg, the “Catalytic activity (%)” value [3] was 100% and the Km [3] was 7.2 µM. For the same molecule, the CPG2 enzyme activity ([4]; A2780 clone expressing CPG2*) was 0.964 U/mg, the CPG2 enzyme activity ([4]; SK-OV-3 clone expressing CPG2*) was 1.013 U/mg and the CPG2 enzyme activity ([4]; WiDr clone expressing CPG2*) was 0.787 U/mg.

B2: CPG2*(QSQ) (enzyme)
chain: ALAQKRDNVLFQAATDEQPAVIKTLEKLVNIETGTGDAEGIAAAGNFLEAELKNLGFTVTRSKSAGLVVGDNIVGKIKGRGGKNLLLMSHMDTVYLKGILAKAPFRVEGDKAYGPGIADDKGGNAVILHTLKLLKEYGVRDYGTITVLFNTDEEKGSFGSRDLIQEEAKLADYVLSFEPTSAGDEKLSLGTSGIAYVQVQITGKASHAGAAPELGVNALVEASDLVLRTMNIDDKAKNLRFSWTIAKAGQVSNIIPASATLNADVRYARNEDFDAAMKTLEERAQQKKLPEADVKVIVTRGRPAFNAGEGGKKLVDKAVAYYKEAGGTLGVEERTGGGTDAAYAALSGKPVIESLGLPGFGYHSDKAEYVDISAIPRRLYMAARLIMDLGAGK
notes: also called COS/CPG2* (QSQ)
In the case of B2, the binding result [1] is reported as “binds”, the “catalytic activity compared to CPG2*(Q)3” value [3] is reported as “almost twice as active” and the “increase in Km (decrease in apparent affinity for MTX) compared to CPG2*(Q)3” value [3] is reported as ~6 fold. The “Catalytic activity (%)” value [3] was 58%, the Km [3] was 58 µM and the dimer stability [5] was “improved; also recorded: restored weak dimer stability”.

B3: CPG2*(QAQ): cytosolic CPG2*(Q)3 with the glutamine at position 264 substituted with alanine (protein)
chain: ALAQKRDNVLFQAATDEQPAVIKTLEKLVNIETGTGDAEGIAAAGNFLEAELKNLGFTVTRSKSAGLVVGDNIVGKIKGRGGKNLLLMSHMDTVYLKGILAKAPFRVEGDKAYGPGIADDKGGNAVILHTLKLLKEYGVRDYGTITVLFNTDEEKGSFGSRDLIQEEAKLADYVLSFEPTSAGDEKLSLGTSGIAYVQVQITGKASHAGAAPELGVNALVEASDLVLRTMNIDDKAKNLRFAWTIAKAGQVSNIIPASATLNADVRYARNEDFDAAMKTLEERAQQKKLPEADVKVIVTRGRPAFNAGEGGKKLVDKAVAYYKEAGGTLGVEERTGGGTDAAYAALSGKPVIESLGLPGFGYHSDKAEYVDISAIPRRLYMAARLIMDLGAGK
For B3, the “Catalytic activity (%)” value [3] was “essentially inactive”, the “Catalytic activity (%)” value ([3]; listed as COS/CPG2* (QAQ)) was “Very low” and the dimer stability [5] was “did not restore dimer stability; also recorded: not improved”.

B4: CPG2*(N222L) (enzyme)
chain: ALAQKRDNVLFQAATDEQPAVIKTLEKLVNIETGTGDAEGIAAAGNFLEAELKNLGFTVTRSKSAGLVVGDNIVGKIKGRGGKNLLLMSHMDTVYLKGILAKAPFRVEGDKAYGPGIADDKGGNAVILHTLKLLKEYGVRDYGTITVLFNTDEEKGSFGSRDLIQEEAKLADYVLSFEPTSAGDEKLSLGTSGIAYVQVLITGKASHAGAAPELGVNALVEASDLVLRTMNIDDKAKNLRFNWTIAKAGNVSNIIPASATLNADVRYARNEDFDAAMKTLEERAQQKKLPEADVKVIVTRGRPAFNAGEGGKKLVDKAVAYYKEAGGTLGVEERTGGGTDAAYAALSGKPVIESLGLPGFGYHSDKAEYVDISAIPRRLYMAARLIMDLGAGK
notes: Cytosolic form expressed in COS cells
With B4 the binding result [1] was “binds” and the dimer stability [5] was “formed stable dimers”.

B5: CPG2*(QTQ): cytosolic CPG2*(Q)3 with the glutamine at position 264 substituted with threonine (protein)
chain: ALAQKRDNVLFQAATDEQPAVIKTLEKLVNIETGTGDAEGIAAAGNFLEAELKNLGFTVTRSKSAGLVVGDNIVGKIKGRGGKNLLLMSHMDTVYLKGILAKAPFRVEGDKAYGPGIADDKGGNAVILHTLKLLKEYGVRDYGTITVLFNTDEEKGSFGSRDLIQEEAKLADYVLSFEPTSAGDEKLSLGTSGIAYVQVQITGKASHAGAAPELGVNALVEASDLVLRTMNIDDKAKNLRFTWTIAKAGQVSNIIPASATLNADVRYARNEDFDAAMKTLEERAQQKKLPEADVKVIVTRGRPAFNAGEGGKKLVDKAVAYYKEAGGTLGVEERTGGGTDAAYAALSGKPVIESLGLPGFGYHSDKAEYVDISAIPRRLYMAARLIMDLGAGK
With B5 the “catalytic activity compared to CPG2*(Q)3” value [3] was ~2.5 fold, the “increase in Km (decrease in apparent affinity for MTX) compared to CPG2*(Q)3” value [3] was ~12 fold and the “Catalytic activity (%)” value [3] was 78%. For the same molecule, the Km [3] was 125 µM and the dimer stability [5] was “did not restore dimer stability; also recorded: not improved”.

B6: stCPG2(QTQ): surface tethered CPG2, Q222, T264, Q272 (protein)
chain: ALAQKRDNVLFQAATDEQPAVIKTLEKLVNIETGTGDAEGIAAAGNFLEAELKNLGFTVTRSKSAGLVVGDNIVGKIKGRGGKNLLLMSHMDTVYLKGILAKAPFRVEGDKAYGPGIADDKGGNAVILHTLKLLKEYGVRDYGTITVLFNTDEEKGSFGSRDLIQEEAKLADYVLSFEPTSAGDEKLSLGTSGIAYVQVQITGKASHAGAAPELGVNALVEASDLVLRTMNIDDKAKNLRFTWTIAKAGQVSNIIPASATLNADVRYARNEDFDAAMKTLEERAQQKKLPEADVKVIVTRGRPAFNAGEGGKKLVDKAVAYYKEAGGTLGVEERTGGGTDAAYAALSGKPVIESLGLPGFGYHSDKAEYVDISAIPRRLYMAARLIMDLGAGKDLDDKGCPAEQRASPLTSIISAVVGILLVVVLGVVFGILIKRRQQKIRKYT
With B6 the “Catalytic activity (%)” value [3] was 29%, the Km [3] was 45 µM and the dimer stability [5] was “did nor form stable dimers”.

B7: stCPG2(QAQ): surface tethered CPG2, Q222, A264, Q272 (protein)
chain: ALAQKRDNVLFQAATDEQPAVIKTLEKLVNIETGTGDAEGIAAAGNFLEAELKNLGFTVTRSKSAGLVVGDNIVGKIKGRGGKNLLLMSHMDTVYLKGILAKAPFRVEGDKAYGPGIADDKGGNAVILHTLKLLKEYGVRDYGTITVLFNTDEEKGSFGSRDLIQEEAKLADYVLSFEPTSAGDEKLSLGTSGIAYVQVQITGKASHAGAAPELGVNALVEASDLVLRTMNIDDKAKNLRFAWTIAKAGQVSNIIPASATLNADVRYARNEDFDAAMKTLEERAQQKKLPEADVKVIVTRGRPAFNAGEGGKKLVDKAVAYYKEAGGTLGVEERTGGGTDAAYAALSGKPVIESLGLPGFGYHSDKAEYVDISAIPRRLYMAARLIMDLGAGKDLDDKGCPAEQRASPLTSIISAVVGILLVVVLGVVFGILIKRRQQKIRKYT
For B7, the “Catalytic activity (%)” value [3] was 38%, the Km [3] was 69 µM and the dimer stability [5] was “did nor form stable dimers”.

B8: stCPG2(QSQ): surface tethered CPG2, Q222, S264, Q272 (protein)
chain: ALAQKRDNVLFQAATDEQPAVIKTLEKLVNIETGTGDAEGIAAAGNFLEAELKNLGFTVTRSKSAGLVVGDNIVGKIKGRGGKNLLLMSHMDTVYLKGILAKAPFRVEGDKAYGPGIADDKGGNAVILHTLKLLKEYGVRDYGTITVLFNTDEEKGSFGSRDLIQEEAKLADYVLSFEPTSAGDEKLSLGTSGIAYVQVQITGKASHAGAAPELGVNALVEASDLVLRTMNIDDKAKNLRFSWTIAKAGQVSNIIPASATLNADVRYARNEDFDAAMKTLEERAQQKKLPEADVKVIVTRGRPAFNAGEGGKKLVDKAVAYYKEAGGTLGVEERTGGGTDAAYAALSGKPVIESLGLPGFGYHSDKAEYVDISAIPRRLYMAARLIMDLGAGKDLDDKGCPAEQRASPLTSIISAVVGILLVVVLGVVFGILIKRRQQKIRKYT
With B8 the “Catalytic activity (%)” value [3] was 40%, the Km [3] was 51 µM and the dimer stability [5] was “weak dimers”.
